Reference: patent EP0239400B1
pKd: −log10 of the molar value.

Columns and labels:
[1] = target: hen eggwhite lysozyme (hen) (UniProt P00698); experiment: fluorescence quench titration with hen eggwhite lysozyme, in solution; reassociated chains
[2] = target: hen eggwhite lysozyme (hen) (UniProt P00698); experiment: fluorescence quench titration with hen eggwhite lysozyme, in solution

Sequence of UniProt P00698 (P00698 19-147 limits assumed): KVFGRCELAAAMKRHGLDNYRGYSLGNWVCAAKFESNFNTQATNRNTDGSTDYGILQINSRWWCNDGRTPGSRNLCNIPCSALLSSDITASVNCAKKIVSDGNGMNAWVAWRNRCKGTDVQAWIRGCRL

| pKd [1] | pKd [2] | Substance |
| --- | --- | --- |
| 7.94 | 7.84 | antilysozyme antibody D1.3 (H₂K₂) |
| 8.04 | – | recombinant D1.3 (H*₂K₂) (reassociated) (antibody) |
